According to PMC9440123, “Rtt105 regulates RPA function by configurationally stapling the flexible domains” (Nature Communications, 2022):
One block for each binder: values may come before it.

B8: Regulator of Ty1 Transposition 105 (Rtt105) (natural protein, S. cerevisiae, UniProt P40063 1-208, looked up)
chain: MYSNHNLNSDDCCFDWNEEKAAELQRTGVSFDRSLTPQSLRTSTRRLSEENKQQSGTMHIDTSPSVVSDIISSRRDRSQDFFGPHSSSPIAPSERQRADQRSRLESMRLTRRRDKMTKVRGGLEKMEEMIMQGEHLREMQRLKQEAQKNALPSDMAEYMEWQNNEDLEDDELLAFIEKQETYKNELEHFLNNANKNVYENNSYPNSHT
notes: Rtt105, S. cerevisiae, a 24 kDa protein; RSF-Duet1 plasmid; also called Rtt105^WT; unlabeled Rtt105

Key:
[1] = target: T1, RPA (RPA70/RPA32/RPA14) (Saccharomyces cerevisiae, UniProt P22336;P26754;P26755 1-621;1-273;1-122); assay: EMSA; no Rtt105; 5 mM MgCl2; stoichiometric, apparent Kd; EMSA: 25 mM Tris-Cl pH 7.5, 200 mM NaCl, 5 mM MgCl2, 5% glycerol, 0.05% Tween-20, 25 C; anisotropy/FRET: 30 mM HEPES pH 7.8, 100 mM KCl, 6% glycerol, 5 mM MgCl2, 1 mM bME, 23 C (stopped flow 25 C); conditions: protein: recombinant; copies: 1;1;1; label: 5'-Cy5
Target sequence in this assay (P22336 whole entry, chain 1 of 3): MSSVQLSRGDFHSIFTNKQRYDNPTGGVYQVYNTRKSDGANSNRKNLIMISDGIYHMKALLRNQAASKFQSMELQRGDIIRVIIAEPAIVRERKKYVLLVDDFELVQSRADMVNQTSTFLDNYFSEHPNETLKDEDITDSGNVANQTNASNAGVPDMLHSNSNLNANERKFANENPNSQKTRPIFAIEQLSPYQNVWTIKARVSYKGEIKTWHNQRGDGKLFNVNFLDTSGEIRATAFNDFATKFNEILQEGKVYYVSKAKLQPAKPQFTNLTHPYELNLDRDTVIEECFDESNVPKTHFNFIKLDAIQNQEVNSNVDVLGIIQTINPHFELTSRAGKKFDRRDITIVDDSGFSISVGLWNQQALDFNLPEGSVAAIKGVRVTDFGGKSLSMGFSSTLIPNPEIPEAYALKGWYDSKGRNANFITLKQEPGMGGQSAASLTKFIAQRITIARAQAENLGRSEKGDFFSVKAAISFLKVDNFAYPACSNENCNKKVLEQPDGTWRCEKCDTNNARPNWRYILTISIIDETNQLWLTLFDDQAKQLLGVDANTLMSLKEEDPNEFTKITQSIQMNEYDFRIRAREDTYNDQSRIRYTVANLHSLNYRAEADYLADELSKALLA
Target sequence in this assay (P26754 whole entry, chain 2 of 3): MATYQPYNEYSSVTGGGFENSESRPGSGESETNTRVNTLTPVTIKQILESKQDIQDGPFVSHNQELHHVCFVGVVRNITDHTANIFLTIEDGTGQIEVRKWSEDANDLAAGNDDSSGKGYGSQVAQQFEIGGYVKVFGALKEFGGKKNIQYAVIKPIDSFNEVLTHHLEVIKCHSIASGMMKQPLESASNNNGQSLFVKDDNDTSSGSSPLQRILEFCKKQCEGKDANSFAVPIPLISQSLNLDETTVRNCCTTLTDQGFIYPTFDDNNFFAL
Target sequence in this assay (P26755 whole entry, chain 3 of 3): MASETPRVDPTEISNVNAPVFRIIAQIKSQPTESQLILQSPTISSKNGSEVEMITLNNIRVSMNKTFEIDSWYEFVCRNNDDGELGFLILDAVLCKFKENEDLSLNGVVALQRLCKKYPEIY

[2] = target: RPA (RPA70/RPA32/RPA14);Rtt105 (Saccharomyces cerevisiae;Saccharomyces …, UniProt P22336;P26754;P26755;P40063 1-621;1-273;1-122;1-208, |); assay: EMSA; Rtt105 premixed 1:1; 5 mM MgCl2; stoichiometric, apparent Kd; EMSA: 25 mM Tris-Cl pH 7.5, 200 mM NaCl, 5 mM MgCl2, 5% glycerol, 0.05% Tween-20, 25 C; anisotropy/FRET: 30 mM HEPES pH 7.8, 100 mM KCl, 6% glycerol, 5 mM MgCl2, 1 mM bME, 23 C (stopped flow 25 C); conditions: protein: recombinant;recombinant; tags: ;; copies: 1;1;1;1; label: 5'-Cy5
[3] = target: T1, RPA (RPA70/RPA32/RPA14); assay: competition; facilitated exchange: excess free RPA displaces prebound labeled RPA; EMSA: 25 mM Tris-Cl pH 7.5, 200 mM NaCl, 5 mM MgCl2, 5% glycerol, 0.05% Tween-20, 25 C; anisotropy/FRET: 30 mM HEPES pH 7.8, 100 mM KCl, 6% glycerol, 5 mM MgCl2, 1 mM bME, 23 C (stopped flow 25 C); conditions: protein: recombinant; copies: 1;1;1
Target sequence in this assay (P26754 whole entry, chain 2 of 2): as the sequence (P26754 whole entry, chain 2 of 3) above
Target sequence in this assay (P26755 whole entry, chain 3 of 2): as the sequence (P26755 whole entry, chain 3 of 3) above

[4] = target: RPA-DBD-A-Cy5 (Saccharomyces cerevisiae, UniProt P22336;P26754;P26755 1-621;1-273;1-122); assay: stopped-flow FRET; no Rtt105; kobs1 18.2, kobs2 2.7 s-1; EMSA: 25 mM Tris-Cl pH 7.5, 200 mM NaCl, 5 mM MgCl2, 5% glycerol, 0.05% Tween-20, 25 C; anisotropy/FRET: 30 mM HEPES pH 7.8, 100 mM KCl, 6% glycerol, 5 mM MgCl2, 1 mM bME, 23 C (stopped flow 25 C); conditions: protein: recombinant; tags: Cy5 on DBD-A via 4AZP; copies: 1;1;1; label: 5'-Cy3
[5] = target: RPA-DBD-A-Cy5;Rtt105 (Saccharomyces cerevisiae;Saccharomyces …, UniProt P22336;P26754;P26755;P40063 1-621;1-273;1-122;1-208, |); assay: stopped-flow FRET; with Rtt105; kobs1 15, kobs2 1.9 s-1; EMSA: 25 mM Tris-Cl pH 7.5, 200 mM NaCl, 5 mM MgCl2, 5% glycerol, 0.05% Tween-20, 25 C; anisotropy/FRET: 30 mM HEPES pH 7.8, 100 mM KCl, 6% glycerol, 5 mM MgCl2, 1 mM bME, 23 C (stopped flow 25 C); conditions: protein: recombinant;recombinant; tags: Cy5 on DBD-A via 4AZP;; copies: 1;1;1;1; label: 5'-Cy3
[6] = target: RPA-DBD-D-Cy5 (Saccharomyces cerevisiae, UniProt P22336;P26754;P26755 1-621;1-273;1-122); assay: stopped-flow FRET; no Rtt105; kobs1 100.3, kobs2 16, kobs3 1.4 s-1; EMSA: 25 mM Tris-Cl pH 7.5, 200 mM NaCl, 5 mM MgCl2, 5% glycerol, 0.05% Tween-20, 25 C; anisotropy/FRET: 30 mM HEPES pH 7.8, 100 mM KCl, 6% glycerol, 5 mM MgCl2, 1 mM bME, 23 C (stopped flow 25 C); conditions: protein: recombinant; tags: Cy5 on DBD-D via 4AZP; copies: 1;1;1; label: 3'-Cy3
[7] = target: RPA-DBD-D-Cy5;Rtt105 (Saccharomyces cerevisiae;Saccharomyces …, UniProt P22336;P26754;P26755;P40063 1-621;1-273;1-122;1-208, |); assay: stopped-flow FRET; with Rtt105; kobs1 0.5, kobs2 48, kobs3 3.6 s-1; EMSA: 25 mM Tris-Cl pH 7.5, 200 mM NaCl, 5 mM MgCl2, 5% glycerol, 0.05% Tween-20, 25 C; anisotropy/FRET: 30 mM HEPES pH 7.8, 100 mM KCl, 6% glycerol, 5 mM MgCl2, 1 mM bME, 23 C (stopped flow 25 C); conditions: protein: recombinant;recombinant; tags: Cy5 on DBD-D via 4AZP;; copies: 1;1;1;1; label: 3'-Cy3
[8] = target: hRPA (human, UniProt P27694;P15927;P35244 1-616;1-270;1-121); assay: fluorescence anisotropy; 20 nM DNA; stoichiometric; no RPAIN; EMSA: 25 mM Tris-Cl pH 7.5, 200 mM NaCl, 5 mM MgCl2, 5% glycerol, 0.05% Tween-20, 25 C; anisotropy/FRET: 30 mM HEPES pH 7.8, 100 mM KCl, 6% glycerol, 5 mM MgCl2, 1 mM bME, 23 C (stopped flow 25 C); conditions: protein: recombinant; copies: 1;1;1; label: 5'-FAM
[9] = target: hRPA;RPAIN (human;human, UniProt P27694;P15927;P35244;Q86UA6 1-616;1-270;1-121;1-219, |); assay: fluorescence anisotropy; 20 nM DNA; stoichiometric; hRPA:RPAIN 1:2; EMSA: 25 mM Tris-Cl pH 7.5, 200 mM NaCl, 5 mM MgCl2, 5% glycerol, 0.05% Tween-20, 25 C; anisotropy/FRET: 30 mM HEPES pH 7.8, 100 mM KCl, 6% glycerol, 5 mM MgCl2, 1 mM bME, 23 C (stopped flow 25 C); conditions: protein: recombinant;recombinant; tags: ;N-terminal SUMO tag removed; copies: 1;1;1;2; label: 5'-FAM
[10] = target: T2, Replication Protein A (RPA), S. cerevisiae heterotrimer of RPA70, RPA32 and RPA14 (S. cerevisiae, UniProt P22336 1-621; P26754 1-273; P26755 1-122); assay: AUC; sedimentation velocity as a14; Rtt105^Cy5, RPA and Rad52 mixed in equimolar concentrations, no ssDNA; 280 nm and 650 nm; conditions: both partners purified
T2 construct: RPA70 (Rfa1), large subunit of S. cerevisiae RPA; holds OB-F, DBD-A, DBD-B and DBD-C; RPA32 (Rfa2), middle subunit of S. cerevisiae RPA; holds DBD-D and the winged-helix domain; RPA14 (Rfa3), small subunit of S. cerevisiae RPA; holds OB-E; also called yeast RPA; unlabeled RPA; copies: + +

[11] = target: RPA-DBD-A^Cy3 (S. cerevisiae) (UniProt P22336); assay: FRET or BRET; stopped-flow FRET, Cy3 excited at 535 nm, Cy5 emission; 100 nM each of RPA^Cy3 and Rtt105^Cy5; 25 °C; RPA reaction buffer; no DNA
[12] = target: RPA-DBD-D^Cy3 (S. cerevisiae) (UniProt P22336); assay: as above
[13] = target: RPA-DBD-D^MB543 (S. cerevisiae) (UniProt P22336); assay: optical tweezers with confocal fluorescence (C-trap); Rtt105^Cy5-RPA premixed 1:1, incubated with stretched lambda ssDNA, then moved to a buffer channel; 30 mM HEPES pH 7.8, 100 mM KCl, 6% glycerol, 5 mM MgCl2
[14] = target: B8; assay: other fluorescence titration; MB543 fluorescence quenching; 200 nM fluorescent RPA or F-A-B in the cuvette, unlabeled Rtt105 added stepwise; 23 °C; 30 mM HEPES pH 7.8, 100 mM KCl, 6% glycerol, 5 mM MgCl2, 1 mM βME; quadratic fit, apparent KD; conditions: both partners purified
[15] = target: T2, Replication Protein A (RPA), S. …; assay: cross-linking; BS3 (5 mM) cross-linking of RPA with Rtt105 in 30 mM HEPES, 200 mM KCl, pH 7.8; SDS-PAGE shift and mass spectrometry of cross-linked peptides (XL-MS); conditions: both partners purified
[16] = target: RPA-DBD-A^MB543 (S. cerevisiae) (UniProt P22336); assay: other fluorescence titration; MB543 fluorescence quenching; 200 nM fluorescent RPA or F-A-B in the cuvette, unlabeled Rtt105 added stepwise; 23 °C; 30 mM HEPES pH 7.8, 100 mM KCl, 6% glycerol, 5 mM MgCl2, 1 mM βME; quadratic fit, apparent KD

T2 sequence (P26754 whole entry, chain 2 of 2, the tested form may be a part): as the sequence (P26754 whole entry, chain 2 of 3) above
T2 sequence (P26755 whole entry, chain 3 of 2, the tested form may be a part): as the sequence (P26755 whole entry, chain 3 of 3) above
hRPA, sequence (P27694 whole entry, chain 1 of 3): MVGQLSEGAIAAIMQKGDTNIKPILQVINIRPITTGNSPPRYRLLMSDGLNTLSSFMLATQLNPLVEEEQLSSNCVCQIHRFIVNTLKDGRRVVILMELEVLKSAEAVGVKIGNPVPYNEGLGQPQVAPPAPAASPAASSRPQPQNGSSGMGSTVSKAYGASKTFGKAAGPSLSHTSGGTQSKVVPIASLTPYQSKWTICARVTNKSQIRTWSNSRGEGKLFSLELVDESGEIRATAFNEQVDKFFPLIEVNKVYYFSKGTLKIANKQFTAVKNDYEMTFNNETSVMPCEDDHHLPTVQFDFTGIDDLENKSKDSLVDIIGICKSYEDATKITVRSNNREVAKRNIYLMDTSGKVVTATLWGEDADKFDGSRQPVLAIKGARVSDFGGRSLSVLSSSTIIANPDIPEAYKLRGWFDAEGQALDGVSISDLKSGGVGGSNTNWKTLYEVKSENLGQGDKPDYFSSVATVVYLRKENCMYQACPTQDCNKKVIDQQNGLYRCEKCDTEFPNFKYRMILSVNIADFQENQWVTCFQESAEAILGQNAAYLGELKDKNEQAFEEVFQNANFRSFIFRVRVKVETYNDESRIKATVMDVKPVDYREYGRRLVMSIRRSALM
hRPA, sequence (P15927 whole entry, chain 2 of 3): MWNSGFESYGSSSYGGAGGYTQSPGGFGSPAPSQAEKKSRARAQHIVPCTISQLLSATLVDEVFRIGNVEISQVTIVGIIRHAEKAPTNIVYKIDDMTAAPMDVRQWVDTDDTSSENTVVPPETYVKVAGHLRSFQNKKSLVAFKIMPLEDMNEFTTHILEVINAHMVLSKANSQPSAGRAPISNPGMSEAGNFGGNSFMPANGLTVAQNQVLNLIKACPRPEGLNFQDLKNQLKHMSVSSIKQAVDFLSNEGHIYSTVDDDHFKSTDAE
hRPA, sequence (P35244 whole entry, chain 3 of 3): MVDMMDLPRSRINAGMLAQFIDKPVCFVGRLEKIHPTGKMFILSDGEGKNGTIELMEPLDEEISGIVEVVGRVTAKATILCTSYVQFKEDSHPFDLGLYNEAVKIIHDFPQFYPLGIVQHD
hRPA;RPAIN, sequence (P27694 whole entry, chain 1 of 4): as the sequence (P27694 whole entry, chain 1 of 3) above
hRPA;RPAIN, sequence (P15927 whole entry, chain 2 of 4): as the sequence (P15927 whole entry, chain 2 of 3) above
hRPA;RPAIN, sequence (P35244 whole entry, chain 3 of 4): as the sequence (P35244 whole entry, chain 3 of 3) above
hRPA;RPAIN, sequence (Q86UA6 whole entry, chain 4 of 4): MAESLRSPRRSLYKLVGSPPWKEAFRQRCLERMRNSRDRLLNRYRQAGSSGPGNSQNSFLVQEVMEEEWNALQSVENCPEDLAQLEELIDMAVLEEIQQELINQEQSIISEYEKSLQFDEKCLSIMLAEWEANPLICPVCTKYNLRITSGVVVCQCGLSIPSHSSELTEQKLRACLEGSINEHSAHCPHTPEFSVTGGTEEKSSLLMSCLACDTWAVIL
RPA (RPA70/RPA32/RPA14);Rtt105, sequence (P22336 whole entry, chain 1 of 4, one chain of several): as the sequence (P22336 whole entry, chain 1 of 3) above
RPA (RPA70/RPA32/RPA14);Rtt105, sequence (P26754 whole entry, chain 2 of 4, one chain of several): as the sequence (P26754 whole entry, chain 2 of 3) above
RPA (RPA70/RPA32/RPA14);Rtt105, sequence (P26755 whole entry, chain 3 of 4, one chain of several): as the sequence (P26755 whole entry, chain 3 of 3) above
RPA-DBD-D-Cy5, sequence (P26754 whole entry, chain 2 of 2): as the sequence (P26754 whole entry, chain 2 of 3) above
RPA-DBD-D-Cy5, sequence (P26755 whole entry, chain 3 of 2): as the sequence (P26755 whole entry, chain 3 of 3) above
RPA-DBD-A-Cy5, sequence (P26754 whole entry, chain 2 of 2): as the sequence (P26754 whole entry, chain 2 of 3) above
RPA-DBD-A-Cy5, sequence (P26755 whole entry, chain 3 of 2): as the sequence (P26755 whole entry, chain 3 of 3) above
RPA-DBD-A-Cy5;Rtt105, sequence (P26754 whole entry, chain 2 of 2): as the sequence (P26754 whole entry, chain 2 of 3) above
RPA-DBD-A-Cy5;Rtt105, sequence (P26755 whole entry, chain 3 of 2): as the sequence (P26755 whole entry, chain 3 of 3) above
RPA-DBD-D-Cy5;Rtt105, sequence (P26754 whole entry, chain 2 of 2): as the sequence (P26754 whole entry, chain 2 of 3) above
RPA-DBD-D-Cy5;Rtt105, sequence (P26755 whole entry, chain 3 of 2): as the sequence (P26755 whole entry, chain 3 of 3) above

B1: 5'-Cy5-(dT)30 (ssDNA)
DNA: TTTTTTTTTTTTTTTTTTTTTTTTTTTTTT
Kd [1]: 5 ± 0.7 nM
Kd [2]: 5.7 ± 1.2 nM

B2: (dT)97 (ssDNA)
DNA: TTTTTTTTTTTTTTTTTTTTTTTTTTTTTTTTTTTTTTTTTTTTTTTTTTTTTTTTTTTTTTTTTTTTTTTTTTTTTTTTTTTTTTTTTTTTTTTTT
binding result [3]: binds

B3: 5'-Cy3-(dT)40 (ssDNA)
DNA: TTTTTTTTTTTTTTTTTTTTTTTTTTTTTTTTTTTTTTTT
binding result [4]: binds
binding result [5]: binds

B4: 3'-Cy3-(dT)40 (ssDNA)
DNA: TTTTTTTTTTTTTTTTTTTTTTTTTTTTTTTTTTTTTTTT
binding result [6]: binds
binding result [7]: binds

B5: 5'-FAM-(dT)25 (ssDNA)
DNA: TTTTTTTTTTTTTTTTTTTTTTTTT
binding result [8]: binds
binding result [9]: binds

binding result [10]: binds
kobs (single-step model) [11]: 0.2 s⁻¹
kobs,1 (two-step model) [12]: 3.5 s⁻¹
kobs,2 (two-step model) [12]: 0.2 s⁻¹
t1/2 of dissociation from RPA on ssDNA [13]: 5 s
B6: Rtt105^Cy5 (Rtt105^C13S labeled with Cy5 on Cys-12) (natural protein, S. cerevisiae, UniProt P40063 1-208, looked up)
chain: MYSNHNLNSDDCSFDWNEEKAAELQRTGVSFDRSLTPQSLRTSTRRLSEENKQQSGTMHIDTSPSVVSDIISSRRDRSQDFFGPHSSSPIAPSERQRADQRSRLESMRLTRRRDKMTKVRGGLEKMEEMIMQGEHLREMQRLKQEAQKNALPSDMAEYMEWQNNEDLEDDELLAFIEKQETYKNELEHFLNNANKNVYENNSYPNSHT
modifications: Cy5 (maleimide chemistry) on Cys-12
notes: Rtt105, S. cerevisiae, single-Cys version; also called Cy5-labeled Rtt105; fluorescent Rtt105; source: E. coli, purified similar to the wild-type protein, labeled with Cy5-maleimide

Kd [14]: 33.9 nM
B7: F-A-B-DBD-A^MB543 (domain or fragment)
chain: MSSVQLSRGDFHSIFTNKQRYDNPTGGVYQVYNTRKSDGANSNRKNLIMISDGIYHMKALLRNQAASKFQSMELQRGDIIRVIIAEPAIVRERKKYVLLVDDFELVQSRADMVNQTSTFLDNYFSEHPNETLKDEDITDSGNVANQTNASNAGVPDMLHSNSNLNANERKFANENPNSQKTRPIFAIEQLSPYQNVWTIKARVSYKGEIKTWHNQRGDGKLFNVNFLDTSGEIRATAFNDFATKFNEILQEGKVYYVSKAKLQPAKPQFTNLTHPYELNLDRDTVIEECFDESNVPKTHFNFIKLDAIQNQEVNSNVDVLGIIQTINPHFELTSRAGKKFDRRDITIVDDSGFSISVGLWNQQALDFNLPEGSVAAIKGVRVTDFGGKSLSMGFSSTLIPNPEIPEAYALKGWYDSKGRNANFITL
modifications: 4-azidophenylalanine (4AZP) in DBD-A carrying the MB543 fluorophore; position not given

Binder: B8
binding result [15]: binds
Kd [16]: 61.1 nM
